# From patent publication US11278600B2, “Human alpha-galactosidase variants” (Codexis, Inc., priority 2014, dated 2022)
# Numbering of substitutions follows the chain as printed.
# B1: 616 (protein)
# chain: LDNGLARTPTMGWLHWERFMCNLDCQEEPDSCISEKLFMEMAERMVTEGWKDAGYEYLCIDDCWMAPQRDSEGRLQADPQRFPHGIRQLANHVHSKGLKLGIYADVGNKTCAGFPGSFGYYDIDAQTFADWGVDLLKFDGCYCDSLENLADGYKHMSLALNRTGRPIVYSCEWPLYMWPFQKPNYTEIRQYCNHWRNFADIDDSWASIKSILDWTSRNQERIVDVAGPGGWNDPDMLVIGNFGLSWDQQVTQMALWAIWAAPLFMSNDLRAISPQAKALLQDKDVIAINQDPLGKQGYQLRKGDNFEVWERPLSGDAWAVAIINRQEIGGPRSYTIPVASLGKGVACNPACFITQLLPVKRQLGFYNWTSRLKSHINPTGTVLLQLENTQQMSLKDLL
# modifications: Synthetic Polypeptide sequence of Variant No. 616 of mature Human GLA
# B2: 625 (protein)
# chain: B1 chain with W259M, Q390M, M392T
# modifications: Synthetic Polypeptide sequence of Variant No. 625
# B3: 627 (protein)
# chain: B1 chain with T47N, Q390H, M392T
# modifications: Synthetic Polypeptide sequence of Variant No. 627 of mature Human GLA
# B4: 618 (protein)
# chain: B1 chain with W259M, Q390M
# modifications: Synthetic Polypeptide sequence of Variant No. 618 of mature Human GLA
# B5: 628 (protein)
# chain: B1 chain with T47N, W259M, Q390H
# modifications: Synthetic Polypeptide sequence of Variant No. 628 of mature Human GLA
# B6: 620 (protein)
# chain: B1 chain with W259M
# modifications: Synthetic Polypeptide sequence of Variant No. 620 of mature Human GLA
# B7: 617 (protein)
# chain: B1 chain with T47S, L136V, W259A, A271H
# modifications: Synthetic Polypeptide sequence of Variant No. 617 of mature Human GLA
# B8: 622 (protein)
# chain: B1 chain with T47N, M392T
# modifications: Synthetic Polypeptide sequence of Variant No. 622 of mature Human GLA
# B9: 621 (protein)
# chain: B1 chain with W259E
# modifications: Synthetic Polypeptide sequence of Variant No. 621 of mature Human GLA
# B10: 623 (protein)
# chain: B1 chain with T47N, H92Y, W259M, A276S, Q390M, M392T
# modifications: Synthetic Polypeptide sequence of Variant No. 623 of mature Human GLA
# B11: 629 (protein)
# chain: B1 chain with H92Y, W259M
# modifications: Synthetic Polypeptide sequence of Variant No. 629 of mature Human GLA
# B12: 609 (protein)
# chain: B1 chain with T47S, H92Y, W259M, A271H, Q390M
# modifications: Synthetic Polypeptide sequence of Variant No. 609 of mature Human GLA
# B13: 619 (protein)
# chain: B1 chain with W259M, Q390H
# modifications: Synthetic Polypeptide sequence of Variant No. 619 of mature Human GLA
# B14: 630 (protein)
# chain: B1 chain with Q390H
# modifications: Synthetic Polypeptide sequence of Variant No. 630 of mature Human GLA
# B15: 626 (protein)
# chain: B1 chain with T47S, W259M
# modifications: Synthetic Polypeptide sequence of Variant No. 626 of mature Human GLA
# B16: 624 (protein)
# chain: B1 chain with T47N, H92Y, W259M
# modifications: Synthetic Polypeptide sequence of Variant No. 624 of mature Human GLA
# Assays:
# Assay type in all cases: biochemical
# [1] = HTP-analysis of yeast culture supernatants, no challenge (MUGal hydrolysis); conditions: activity of the variant/activity of Rd3BB (SEQ ID NO: 13), yeast supernatant
# Summary of the method: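 GLA variants were expressed in INVSc1 yeast grown in SD-Ura broth with glucose at 30° C., and culture supernatants were collected after 66-84 h. Supernatant was mixed with McIlvaine buffer pH 4.8 and MUGal (2 mM stock) in 50 mM citrate, 200 mM KCl, pH 4.6, incubated at 37° C. for 30-180 minutes, then quenched with sodium carbonate.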
# [2] = HTP-analysis of supernatants pretreated with acid (MUGal hydrolysis); conditions: challenge at pH 3.3; activity of the variant/activity of Rd3BB (SEQ ID NO: 13); yeast supernatant
# Summary of the method: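 GLA variants were secreted from INVSc1 yeast grown 66-84 h at 30° C. in SD-Ura with 2% glucose; supernatants were mixed with McIlvaine buffer pH 3.3-4.3 and held at 37° C. for 1-3 h. Residual activity on MUGal at pH 4.8 was then measured by fluorescence.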
# [3] = HTP-analysis of supernatants pretreated with base (MUGal hydrolysis); conditions: challenge at pH 9.7; activity of the variant/activity of Rd3BB (SEQ ID NO: 13); yeast supernatant
# Summary of the method: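 Supernatants from INVSc1 yeast expressing GLA variants (SD-Ura, 66-84 h, 30° C) were mixed with McIlvaine buffer pH 7.0-8.2 or 200 mM sodium bicarbonate pH 9.1-9.7 and held 1-18 h at 37° C. Residual activity was then measured on MUGal at pH 4.8/4.3, 37° C, 30-180 min, by fluorescence (Ex 355/Em 448 nm).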
Molecule,Relative Activity of GLA Variants After No Challenge (NC) [1],Relative Activity of GLA Variants After Challenge at pH 3.3 [2],Relative Activity of GLA Variants After Challenge at pH 9.7 [3]
B1,+ (+ = 1.5 to 5 relative activity over Rd3BB (SEQ ID NO: 13)),+ (+ = 1.5 to 5 relative activity over Rd3BB (SEQ ID NO: 13)),++ (++ = >5 to 10 relative activity over Rd3BB (SEQ ID NO: 13))
B2,+ (+ = 1.5 to 5 relative activity over Rd3BB (SEQ ID NO: 13)),++ (++ = >5 to 10 relative activity over Rd3BB (SEQ ID NO: 13)),++ (++ = >5 to 10 relative activity over Rd3BB (SEQ ID NO: 13))
B3,+ (+ = 1.5 to 5 relative activity over Rd3BB (SEQ ID NO: 13)),− (− = <1.5 relative activity to Rd3BB (SEQ ID NO: 13)),++ (++ = >5 to 10 relative activity over Rd3BB (SEQ ID NO: 13))
B4,+ (+ = 1.5 to 5 relative activity over Rd3BB (SEQ ID NO: 13)),++ (++ = >5 to 10 relative activity over Rd3BB (SEQ ID NO: 13)),++ (++ = >5 to 10 relative activity over Rd3BB (SEQ ID NO: 13))
B5,+ (+ = 1.5 to 5 relative activity over Rd3BB (SEQ ID NO: 13)),+ (+ = 1.5 to 5 relative activity over Rd3BB (SEQ ID NO: 13)),++ (++ = >5 to 10 relative activity over Rd3BB (SEQ ID NO: 13))
B6,− (− = <1.5 relative activity to Rd3BB (SEQ ID NO: 13)),+ (+ = 1.5 to 5 relative activity over Rd3BB (SEQ ID NO: 13)),++ (++ = >5 to 10 relative activity over Rd3BB (SEQ ID NO: 13))
B7,+ (+ = 1.5 to 5 relative activity over Rd3BB (SEQ ID NO: 13)),++ (++ = >5 to 10 relative activity over Rd3BB (SEQ ID NO: 13)),++ (++ = >5 to 10 relative activity over Rd3BB (SEQ ID NO: 13))
B8,+ (+ = 1.5 to 5 relative activity over Rd3BB (SEQ ID NO: 13)),− (− = <1.5 relative activity to Rd3BB (SEQ ID NO: 13)),++ (++ = >5 to 10 relative activity over Rd3BB (SEQ ID NO: 13))
B9,+ (+ = 1.5 to 5 relative activity over Rd3BB (SEQ ID NO: 13)),++ (++ = >5 to 10 relative activity over Rd3BB (SEQ ID NO: 13)),− (− = <1.5 relative activity to Rd3BB (SEQ ID NO: 13))
B10,+ (+ = 1.5 to 5 relative activity over Rd3BB (SEQ ID NO: 13)),+++ (+++ = >10 relative activity over Rd3BB (SEQ ID NO: 13)),++ (++ = >5 to 10 relative activity over Rd3BB (SEQ ID NO: 13))
B11,+ (+ = 1.5 to 5 relative activity over Rd3BB (SEQ ID NO: 13)),++ (++ = >5 to 10 relative activity over Rd3BB (SEQ ID NO: 13)),++ (++ = >5 to 10 relative activity over Rd3BB (SEQ ID NO: 13))
B12,+ (+ = 1.5 to 5 relative activity over Rd3BB (SEQ ID NO: 13)),++ (++ = >5 to 10 relative activity over Rd3BB (SEQ ID NO: 13)),++ (++ = >5 to 10 relative activity over Rd3BB (SEQ ID NO: 13))
B13,+ (+ = 1.5 to 5 relative activity over Rd3BB (SEQ ID NO: 13)),++ (++ = >5 to 10 relative activity over Rd3BB (SEQ ID NO: 13)),++ (++ = >5 to 10 relative activity over Rd3BB (SEQ ID NO: 13))
B14,+ (+ = 1.5 to 5 relative activity over Rd3BB (SEQ ID NO: 13)),− (− = <1.5 relative activity to Rd3BB (SEQ ID NO: 13)),++ (++ = >5 to 10 relative activity over Rd3BB (SEQ ID NO: 13))
B15,+ (+ = 1.5 to 5 relative activity over Rd3BB (SEQ ID NO: 13)),++ (++ = >5 to 10 relative activity over Rd3BB (SEQ ID NO: 13)),++ (++ = >5 to 10 relative activity over Rd3BB (SEQ ID NO: 13))
B16,+ (+ = 1.5 to 5 relative activity over Rd3BB (SEQ ID NO: 13)),++ (++ = >5 to 10 relative activity over Rd3BB (SEQ ID NO: 13)),++ (++ = >5 to 10 relative activity over Rd3BB (SEQ ID NO: 13))
